Data taken from paper PMC11302882, “tRF-27 competitively Binds to G3BPs and Activates MTORC1 to Enhance HER2 Positive Breast Cancer Trastuzumab Tolerance”.

Columns and labels:
[1] = target: T1, HA-G3BP2 lacking NTF2 domain (UniProt Q9UN86 1-10+134-482, internal_change); test: EMSA; not stated; BeyoMag Chemiluminescent RNA EMSA Kit per manufacturer; biotin-RNA pull-down from cell lysates; conditions: protein: recombinant; tags: N-terminal HA; label: biotin; predicted loop
T1 sequence: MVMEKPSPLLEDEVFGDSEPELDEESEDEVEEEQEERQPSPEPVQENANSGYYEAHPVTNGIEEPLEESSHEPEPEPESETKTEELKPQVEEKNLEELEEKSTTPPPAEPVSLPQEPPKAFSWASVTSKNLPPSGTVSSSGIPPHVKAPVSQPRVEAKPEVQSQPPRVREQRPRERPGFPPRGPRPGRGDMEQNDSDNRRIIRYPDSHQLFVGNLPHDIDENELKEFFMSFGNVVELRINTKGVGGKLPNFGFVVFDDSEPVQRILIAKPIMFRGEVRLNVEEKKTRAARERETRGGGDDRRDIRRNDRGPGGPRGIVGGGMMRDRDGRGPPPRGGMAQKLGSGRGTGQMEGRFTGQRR

HA-G3BP2 full length = target: T2, HA-G3BP2 full length (UniProt Q9UN86 1-482); test: as above; conditions: protein: recombinant; tags: N-terminal HA; chain copies: 2; label: biotin; predicted loop
T2 sequence: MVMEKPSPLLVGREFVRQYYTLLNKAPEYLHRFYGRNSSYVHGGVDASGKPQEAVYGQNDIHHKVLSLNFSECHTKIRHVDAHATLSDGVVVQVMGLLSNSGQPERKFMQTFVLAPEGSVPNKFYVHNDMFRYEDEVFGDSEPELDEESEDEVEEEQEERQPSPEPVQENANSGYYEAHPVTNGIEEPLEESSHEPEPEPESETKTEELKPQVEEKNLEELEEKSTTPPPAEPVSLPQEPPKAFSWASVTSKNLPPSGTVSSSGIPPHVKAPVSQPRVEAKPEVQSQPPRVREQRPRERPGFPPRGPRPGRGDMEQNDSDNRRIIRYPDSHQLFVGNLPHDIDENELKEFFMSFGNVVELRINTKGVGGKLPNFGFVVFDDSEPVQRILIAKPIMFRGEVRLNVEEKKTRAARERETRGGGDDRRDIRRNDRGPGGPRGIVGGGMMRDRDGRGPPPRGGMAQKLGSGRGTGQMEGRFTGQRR

## UUGACUGCAGAUCAAGAGGUCCCCGGU (ssRNA) [tRF-27 (tRF-27-ZDXPHO53KSN)]
[1]
  binding result: no binding
HA-G3BP2 full length
  binding result: binds
